Test results from the supplement of paper PMC9112550, “Optimization of the antimicrobial peptide Bac7 by deep mutational scanning” (BMC Biology, 2022).
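Further: peptides expressed intracellularly from a pBAD plasmid library in pooled LB shake-flask culture, induced with 0.3% L-arabinose, DNA abundance read by NGS, three biological replicates, DESeq2 with apeglm shrinkage.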

What follows are sequences tested on Escherichia coli TOP10 (assay: shrunken log2 fold change of peptide-encoding DNA abundance (4.5 h post-induction vs induction); higher = less antimicrobial activity (less host growth inhibition)). Conditions: time post-induction: 4.5 h; library: site-saturation at positions 5, 18, 19, 20.
With RRIRTRPPRLPRPRPRPGFVPRP the “shrunken log2 fold change” value was -0.0603.
With RRIRTRPPRLPRPRPRPGHRPRP the “shrunken log2 fold change” value was -0.216.
With RRIRTRPPRLPRPRPRPGIFPRP the “shrunken log2 fold change” value was -0.146.
RRIRTRPPRLPRPRPRPGKAPRP was tested, and the “shrunken log2 fold change” value was -0.0369.
For RRIRTRPPRLPRPRPRPGKCPRP, the “shrunken log2 fold change” value was 0.0114.
For RRIRTRPPRLPRPRPRPGLVPRP, the “shrunken log2 fold change” value was 0.0962.
For RRIRTRPPRLPRPRPRPGMWPRP, the “shrunken log2 fold change” value was 0.158.
RRIRTRPPRLPRPRPRPGPGPRP was tested, and the “shrunken log2 fold change” value was 0.484.
With RRIRTRPPRLPRPRPRPGPNPRP the “shrunken log2 fold change” value was -0.0314.
In the case of RRIRTRPPRLPRPRPRPGRNPRP, the “shrunken log2 fold change” value is reported as -0.0275.
RRIRTRPPRLPRPRPRPGRVPRP was tested, and the “shrunken log2 fold change” value was 0.744.
With RRIRTRPPRLPRPRPRPGVGPRP the “shrunken log2 fold change” value was 0.546.
RRIRTRPPRLPRPRPRPGVKPRP was tested, and the “shrunken log2 fold change” value was 0.14.
In the case of RRIRTRPPRLPRPRPRPGYYPRP, the “shrunken log2 fold change” value is reported as -0.442.
RRIRTRPPRLPRPRPRPHARPRP was tested, and the “shrunken log2 fold change” value was 0.158.
With RRIRTRPPRLPRPRPRPHCWPRP the “shrunken log2 fold change” value was -0.0903.
With RRIRTRPPRLPRPRPRPHDCPRP the “shrunken log2 fold change” value was -0.00088.
In the case of RRIRTRPPRLPRPRPRPHEIPRP, the “shrunken log2 fold change” value is reported as 0.00283.
For RRIRTRPPRLPRPRPRPHEQPRP, the “shrunken log2 fold change” value was 0.177.
RRIRTRPPRLPRPRPRPHFWPRP was tested, and the “shrunken log2 fold change” value was 0.0783.
RRIRTRPPRLPRPRPRPHGLPRP was tested, and the “shrunken log2 fold change” value was -0.034.
In the case of RRIRTRPPRLPRPRPRPHLGPRP, the “shrunken log2 fold change” value is reported as 0.0458.
For RRIRTRPPRLPRPRPRPHLSPRP, the “shrunken log2 fold change” value was -0.0793.
For RRIRTRPPRLPRPRPRPHNTPRP, the “shrunken log2 fold change” value was -0.346.
RRIRTRPPRLPRPRPRPHPAPRP was tested, and the “shrunken log2 fold change” value was 0.201.
RRIRTRPPRLPRPRPRPHPGPRP was tested, and the “shrunken log2 fold change” value was 0.106.
In the case of RRIRTRPPRLPRPRPRPHQAPRP, the “shrunken log2 fold change” value is reported as -0.00677.
RRIRTRPPRLPRPRPRPHRAPRP was tested, and the “shrunken log2 fold change” value was 0.0171.
With RRIRTRPPRLPRPRPRPHRFPRP the “shrunken log2 fold change” value was -0.0213.
In the case of RRIRTRPPRLPRPRPRPHVMPRP, the “shrunken log2 fold change” value is reported as -0.0914.
For RRIRTRPPRLPRPRPRPHVPPRP, the “shrunken log2 fold change” value was -0.374.
In the case of RRIRTRPPRLPRPRPRPHVRPRP, the “shrunken log2 fold change” value is reported as -0.00804.
In the case of RRIRTRPPRLPRPRPRPHYEPRP, the “shrunken log2 fold change” value is reported as -0.174.
For RRIRTRPPRLPRPRPRPHYNPRP, the “shrunken log2 fold change” value was -0.75.
With RRIRTRPPRLPRPRPRPHYWPRP the “shrunken log2 fold change” value was -0.25.
With RRIRTRPPRLPRPRPRPIAFPRP the “shrunken log2 fold change” value was -0.0138.
RRIRTRPPRLPRPRPRPIANPRP was tested, and the “shrunken log2 fold change” value was 0.207.
For RRIRTRPPRLPRPRPRPIAQPRP, the “shrunken log2 fold change” value was -0.0464.
RRIRTRPPRLPRPRPRPICPPRP was tested, and the “shrunken log2 fold change” value was -0.0534.
With RRIRTRPPRLPRPRPRPIFFPRP the “shrunken log2 fold change” value was 0.0107.
In the case of RRIRTRPPRLPRPRPRPIHKPRP, the “shrunken log2 fold change” value is reported as -0.281.
In the case of RRIRTRPPRLPRPRPRPIHYPRP, the “shrunken log2 fold change” value is reported as -0.356.
In the case of RRIRTRPPRLPRPRPRPIIWPRP, the “shrunken log2 fold change” value is reported as -0.0836.
RRIRTRPPRLPRPRPRPIKPPRP was tested, and the “shrunken log2 fold change” value was -0.0369.
For RRIRTRPPRLPRPRPRPIKRPRP, the “shrunken log2 fold change” value was -0.0164.
RRIRTRPPRLPRPRPRPILMPRP was tested, and the “shrunken log2 fold change” value was -0.306.
With RRIRTRPPRLPRPRPRPILWPRP the “shrunken log2 fold change” value was 0.0348.
In the case of RRIRTRPPRLPRPRPRPIMWPRP, the “shrunken log2 fold change” value is reported as 0.0465.
For RRIRTRPPRLPRPRPRPINWPRP, the “shrunken log2 fold change” value was -0.0841.
With RRIRTRPPRLPRPRPRPINYPRP the “shrunken log2 fold change” value was -0.502.
RRIRTRPPRLPRPRPRPIPGPRP was tested, and the “shrunken log2 fold change” value was -0.36.
For RRIRTRPPRLPRPRPRPIPYPRP, the “shrunken log2 fold change” value was -0.0288.
RRIRTRPPRLPRPRPRPIQEPRP was tested, and the “shrunken log2 fold change” value was 0.0124.
RRIRTRPPRLPRPRPRPIQHPRP was tested, and the “shrunken log2 fold change” value was -0.403.
For RRIRTRPPRLPRPRPRPISLPRP, the “shrunken log2 fold change” value was -0.0795.
In the case of RRIRTRPPRLPRPRPRPITSPRP, the “shrunken log2 fold change” value is reported as 0.0903.
For RRIRTRPPRLPRPRPRPIVEPRP, the “shrunken log2 fold change” value was 0.0431.
In the case of RRIRTRPPRLPRPRPRPIVRPRP, the “shrunken log2 fold change” value is reported as -0.00141.
RRIRTRPPRLPRPRPRPIWCPRP was tested, and the “shrunken log2 fold change” value was -0.0116.
For RRIRTRPPRLPRPRPRPIWFPRP, the “shrunken log2 fold change” value was -0.033.
With RRIRTRPPRLPRPRPRPIWMPRP the “shrunken log2 fold change” value was -0.101.
For RRIRTRPPRLPRPRPRPIYEPRP, the “shrunken log2 fold change” value was -0.246.
For RRIRTRPPRLPRPRPRPIYRPRP, the “shrunken log2 fold change” value was -0.0278.
RRIRTRPPRLPRPRPRPKATPRP was tested, and the “shrunken log2 fold change” value was -0.146.
For RRIRTRPPRLPRPRPRPKAYPRP, the “shrunken log2 fold change” value was 0.0161.
In the case of RRIRTRPPRLPRPRPRPKCNPRP, the “shrunken log2 fold change” value is reported as -0.221.
With RRIRTRPPRLPRPRPRPKDAPRP the “shrunken log2 fold change” value was 0.103.
RRIRTRPPRLPRPRPRPKDMPRP was tested, and the “shrunken log2 fold change” value was -0.0311.
For RRIRTRPPRLPRPRPRPKEAPRP, the “shrunken log2 fold change” value was 0.00564.
For RRIRTRPPRLPRPRPRPKGLPRP, the “shrunken log2 fold change” value was -0.117.
With RRIRTRPPRLPRPRPRPKHDPRP the “shrunken log2 fold change” value was -0.099.
In the case of RRIRTRPPRLPRPRPRPKIWPRP, the “shrunken log2 fold change” value is reported as 0.141.
RRIRTRPPRLPRPRPRPKLGPRP was tested, and the “shrunken log2 fold change” value was 0.106.
RRIRTRPPRLPRPRPRPKMYPRP was tested, and the “shrunken log2 fold change” value was -0.52.
In the case of RRIRTRPPRLPRPRPRPKNDPRP, the “shrunken log2 fold change” value is reported as -0.362.
In the case of RRIRTRPPRLPRPRPRPKNGPRP, the “shrunken log2 fold change” value is reported as 0.0173.
For RRIRTRPPRLPRPRPRPKPIPRP, the “shrunken log2 fold change” value was 0.0226.
For RRIRTRPPRLPRPRPRPKPKPRP, the “shrunken log2 fold change” value was 0.349.
With RRIRTRPPRLPRPRPRPKPQPRP the “shrunken log2 fold change” value was 0.203.
For RRIRTRPPRLPRPRPRPKQDPRP, the “shrunken log2 fold change” value was 0.075.
RRIRTRPPRLPRPRPRPKQIPRP was tested, and the “shrunken log2 fold change” value was 0.0644.
RRIRTRPPRLPRPRPRPKRCPRP was tested, and the “shrunken log2 fold change” value was 0.0203.
RRIRTRPPRLPRPRPRPKRGPRP was tested, and the “shrunken log2 fold change” value was 0.175.
RRIRTRPPRLPRPRPRPKSAPRP was tested, and the “shrunken log2 fold change” value was 0.221.
RRIRTRPPRLPRPRPRPKSKPRP was tested, and the “shrunken log2 fold change” value was 0.0217.
For RRIRTRPPRLPRPRPRPKTTPRP, the “shrunken log2 fold change” value was 0.0871.
In the case of RRIRTRPPRLPRPRPRPKVHPRP, the “shrunken log2 fold change” value is reported as -0.429.
For RRIRTRPPRLPRPRPRPKVNPRP, the “shrunken log2 fold change” value was -0.168.
With RRIRTRPPRLPRPRPRPKYMPRP the “shrunken log2 fold change” value was -0.15.
In the case of RRIRTRPPRLPRPRPRPKYYPRP, the “shrunken log2 fold change” value is reported as -0.54.
In the case of RRIRTRPPRLPRPRPRPLDIPRP, the “shrunken log2 fold change” value is reported as -1.22.
With RRIRTRPPRLPRPRPRPLETPRP the “shrunken log2 fold change” value was 0.0461.
In the case of RRIRTRPPRLPRPRPRPLEVPRP, the “shrunken log2 fold change” value is reported as -0.00296.
For RRIRTRPPRLPRPRPRPLHNPRP, the “shrunken log2 fold change” value was -0.557.
For RRIRTRPPRLPRPRPRPLICPRP, the “shrunken log2 fold change” value was -0.277.
For RRIRTRPPRLPRPRPRPLIYPRP, the “shrunken log2 fold change” value was -0.174.
For RRIRTRPPRLPRPRPRPLKKPRP, the “shrunken log2 fold change” value was -0.0468.
RRIRTRPPRLPRPRPRPLLLPRP was tested, and the “shrunken log2 fold change” value was 0.758.
With RRIRTRPPRLPRPRPRPLNRPRP the “shrunken log2 fold change” value was -0.173.
RRIRTRPPRLPRPRPRPLPMPRP was tested, and the “shrunken log2 fold change” value was -0.0573.
For RRIRTRPPRLPRPRPRPLPSPRP, the “shrunken log2 fold change” value was -0.0373.
In the case of RRIRTRPPRLPRPRPRPLPWPRP, the “shrunken log2 fold change” value is reported as 0.147.
With RRIRTRPPRLPRPRPRPLQQPRP the “shrunken log2 fold change” value was -0.0185.
RRIRTRPPRLPRPRPRPLRRPRP was tested, and the “shrunken log2 fold change” value was 0.323.
With RRIRTRPPRLPRPRPRPLSIPRP the “shrunken log2 fold change” value was -0.487.
RRIRTRPPRLPRPRPRPLTQPRP was tested, and the “shrunken log2 fold change” value was -0.309.
RRIRTRPPRLPRPRPRPLVFPRP was tested, and the “shrunken log2 fold change” value was -0.214.
In the case of RRIRTRPPRLPRPRPRPLWEPRP, the “shrunken log2 fold change” value is reported as -0.0281.
RRIRTRPPRLPRPRPRPLYRPRP was tested, and the “shrunken log2 fold change” value was 0.0015.
